Assay: soluble fraction after stress (log2 fold change); higher = more stays soluble; pooled small domains, quantitative proteomics
Conditions: stress: pH 4
In short: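 Aggregation propensity is estimated from the fold change in each domain's soluble amount after acid stress. Pooled small-domain libraries were stressed at pH 4, and higher log2 values mean more stayed soluble.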

Sequence | soluble fraction (log2)
HMDTHRLNYSDFVAEVQAQRVSKVVIDGYTIVGQRTNGETFETVRPALQDPKLVDDLLQNNVIIEGKQPE | -0.143
HMDTIVHFLSDGRRITVRIKRNARKNIILRPMAADAVSATIPPWLGRRQLSAWLSEREDLLLSVLSRAA | -0.736
HMDTLESYVKRLEKLEGIADSFKGVSKAFALQAGREIRIMVESEKITDEEAVWLSKDIARRIENELEYPG | -0.468
HMDTNKMLIVNSISNGMKRLQELQDPQLAEIQKTFSGLDEQKATSAQLAQINNIINNRIAEIEG | 0.191
HMDTNPKVIITMDGVNVRSSASTGSDILFIAEKGEEYELISESGDFYKILYEGNKEGYVASWLVETSE | -0.022
HMDTNVKLLSPKQADFFASKLANNQNFSSKFAKVGEDMQPFIERISSELQQDISQVIVYMPYLLESGFKQ | -0.126
HMDTNVPVPNVNGMTLNQAKAALEAAGFHVAVNWLGEKSDNNSVISYEPNGSAAKGTTITITVIAQPEQDG | -0.507
HMDTPPGLSPEEQAIIDIITTRGDATINELTASIDIPTPRLMGMLVDMEFRSLIAAIPGGRYRI | -1.42
HMDTRQFWEQWVADEIRTFEHKDRKQLFGWFEGNKPKLGQMKKLGYGDLLTKVQTSWDEIYQQKE | 0.29
HMDTRSSARKALDAVNLLLETYGAKAYQHSYEIAGRRQQFQTPGDFMAFRSRLMAEVATEENAARINA | ≥ 0.43
HMDTSKIDYSEFITMLDKGEVESVVLKSDTLTVTLKHGTGMAAQTKTVTLMEDLSELTKRLEKAGVKSFDK | 0.176
HMDTVIAEVTASILNLRRSAGTSSDIIGKLNKGEKVSIIGGSGNWKNVRTSGGITGWVYHEYLSTY | -0.183
HMDTYDSIDSILEERHLSRRKLAQAIGLPPSTFQSMMSRKSGMTLEVLMKIVSYLQVSPDAFW | 0.061
HMDVAWDAIKAKLKEVVDAEDKAHPLNDDQIVKALGESGITIARRTIAKYRDLLGIPPARKRKA | 0.0412
HMDVIGLEAAKSAAVKDAGISSPTFTKATLDRDDGRSLYEIEFISGSTKYEYDIDALTGSVLSKKTRALS | ≥ 0.43
HMDVKPWERQEGESAKAFEAFTIYAGLGADRSLRAVAQQLGKSKTLMDRWSSTYSWVARAAEYDADLQRK | ≥ 0.43
HMDVLFGNRLRQLLDERNISQAHFADRIGVSRSRMNNYVAQRSEPDYATLIRIANTLDTSIDFLLGKS | -0.45
HMDVLIQEIGKRLRIQRLAMGLTQEELAKRAGISLSTLKLMEQQGKGSLQRLAKVAVVLDLDGDLRGLF | -1.01
HMDVLKVFSHNVRRYRTQLGLSQETVAFRTGLHRTYISAVERGKRSISLDNIQKIADALEVETYLLFI | 0.22
HMDVLNPGDKAVTTASWLNFRTGPGMQNKVASVLARNTTVNIIEKSNEWYKVSLANGSTGYVHGMYLSKIT | 0.105
HMDVLSQYGSRGEEVGKIQTRLKSWGYFSGEVTGYYGSQTTEAVKRFQQKHGLSATGVADRKTLELIGIS | 0.22
HMDVLTARENEVLQLLAKGMSNKEIASVLVITEKTVKAHVSSILSKLNLSDRTQAALYAVKNGI | -0.154
HMDVNMLVTGMLHKGEKSFVRVSFLRGKDWAEGIVPDAKIEKSQGFMEEEVARLEAYLLEQKSMIMEQA | -1.24

Sequence | soluble fraction (log2)
HMDVQGFVMDLDKPLDKEPIVEGFELKLEDSLTLVAAVNKDKSINSLFDELSKLGIKVKSMRNPP | -2.11
HMDVQNLTKKNQEFINIVTHQLLQSGKSDEDIQTILAKTLPEIIEKQKQGIPARSFLGAPTAWAAQFI | -0.0313
HMDVRLAKVYMLPANPYLRFIEFDDGTHGKFRAKPGKFGLGSVVKVKREDGDMYTLEGNYDGKDRL | 0.152
HMDVSPVRLIREARGLSQVEVAKAAGLSRAAYQNIEVGKTVPRASTMVNIARALGVSMDDLLAPV | 0.0681
HMDVSVPDVTGTRLDRAQSLLEAQGLTLGKVEEFFHATEPAGIVYDQEPRPGTRVDEGTAISVSVSKGPEA | 0.0997
HMDWFDELKVSTDDSGRVTAPEESEFMFQTSNEKIFAGGDMVRGSDLVVTAIWEGRQAAEGIMDYLD | -0.726
HMDWPDDETIARIYALIKSDISSQARKVMELRFSEGMPFARIAAAMGISETAVYRHLSHALTVIRQKLN | -1.24
HMDWREMTAWMAELLKRRTGDDVETWNARVRESGAHDEASLRAWLTEQGVTGYAQTLLVMERFGYPDFF | -1.67
HMDYADISYKIFMNHIKNGQVERVELSGDPRIMGKLKDGTYFVTDNPRTENFKEFLLLNNVQVIETN | -0.772
HMDYEVPEELQQKFEEFPRLKEAFYQLTPGRQHQYLYYFSQAKRSQTRYNRIDKYMNAILQGKGMK | 0.167
HMDYINALTTAGITDAKVIVTAPFDVSGTAALTGIYKAYEDITGSSLNEIAKAVGVEELITTGNLA | 0.2
HMDYKAELDNIIRDHLDMEGPLLPVLHAVMARFSYIPKDAIPIIARKLNLSSAEVSGVISFYHDFKKEK | -0.165
HMDYKYYIVKEPMVVKNLELPVGTRIVYFNTSLFGDSESSRPLKEKNIYQIFFPDDKPLIWGGVPVSLIER | -0.546
HMDYNLTKNQKIVFNLLQNSGEPLKAYTILESLKREGLKSPLQVYRALDKLVELGIIHKIESQNSFI | 0.0373
HMDYNMEEWSLTADQLKSGDTILILNLGKTATLLESTRGKKNVRVRMGNIKTIVETSSIRGNPHQ | -0.729
HMDYPFQYFNYSHLRILGVPAQLIKAVRKAPTLDAIEQLSGLSEKTKLWLLELATEPKLEDVLFDPGR | -0.515
HMDYRSMSGLQKAALLIMSVGEETAAKLFQLMHDDEIREISQTMANLGTVNATVIERLFVEFADAISS | -0.935
HMDYVKTLGETINVRVAASTDADIYKLLPGGEILNRVGYNEEWTKVMVDGSTFYVYSEYVIQTEPPA | -1.25
HMDYYSILGVDRNATGEDIKKAFKKKAMKYHPDRNPDNKESERKFKEAKEAYDTLSNPQKKSMYDQFGT | 0.141
HMEAEDLRDWVGARGIAYTALRPAGIAVVNGRRVDVVSEGAFVNRDDPVEVVRVEGRRIVVKP | -0.106
HMEAGTEYVERAADYIRSHFQEDLTVSKLALYVGLNRSYLTTVFQNTLHVSPQQFLMRFRMERAAQLLD | -0.302
HMEAGTVTVTHAAVYIRSGPGVSYPIAGKAAKNDTYTVLQKDGDWFQIRLPQGNTGWIAGWLVETGT | -0.133
HMEAISIYPNPTDNELHLSTSVQEVRIYNMYGIEVTRAANTDRLAVSHLPKGVYLVHADGAVLKMIK | -1.29

Sequence | soluble fraction (log2)
HMEAISSESIKKMIKSYVSGEDASKPLSDQQIADLLVKEGYMISRRTVAKYRDELGILSSSKRKR | ≥ 0.43
HMEAKQMDAWIVSEAKRQGGKIEPAAAYELSRHTATDTSIASQEIAKLLMYVDFKRPVTREDVVELVSA | -0.0795
HMEALPELTDRQRQVYEFIEARIAEWGYPPTIREIGQHLGIKSTNGVADHLKALKRKGYLQQ | -0.804
HMEALTPREREVLTLMGQGRSNAEIATLLSIAPRTAKVHVQNILSKLGATNRTEAVSLAVRQGLIS | -0.18
HMEASVNAPMPGKIVSVSVSEGQQVNAGDVLLILEAMKMQNEITADAAGTVKAINVNAGQSVKNGDSLVIL | -0.586
HMEAVGLTPRQGDVLALLLQGKPNKLIARDLNLSVETVKDHVAAVLRALGVSTRTQAVLAVSQMQQQAAQ | -0.221
HMEAVLTISPGMYSESVSAELVRLGIITNQKEFNSYLVNNGYAERIQTGDFKIKADMSYDEIARIITK | -0.489
HMEAYDTMEDRTTLAPGFAKLDKRERYILHLRFFEGLTQSQIAERVGISQMHVSRLIRRSLEKLREEIGD | -0.4
HMEAYSAEAVRFRIKAMIESETVDDVMSDDKIVERLLADGVDIARRTVAKYREAMNIPSSVKRRRKLKGM | -0.962
HMEDDRMLVWFFRKSIQNGAQSEAEGRPIFEGKDYVHIQQPGERDYIEREAHQGDIGRWPRHWQAYQEGR | -0.359
HMEDEAVMQLPLSELKGLSPELLAILNGAGYEKLKDVLDLEREDIERIPGMTPERNEQLVAFLAELTE | -1.98
HMEDELFSVARAAFPEYASKIHMNYGSTVQSIARQSGVLTVSETKQLNENQQISYLEYSNGAVVLALA | -0.306
HMEDELVMERFDINELVKSVVNANELRATQKNLSITYDILDTPLYVWADEYKVEEVVTNYLS | -1.06
HMEDIASESVKRVIRKIIDDEDKKSPLSDQAIVEILAKGEGIVIARRTVAKYREMMGILPSSKRKKH | 0.0959
HMEDKIEESLEDNISELFAKTKDKYTLINDLYSKGYTVEELSRFSGLPSGEVRLVISLNSKN | -0.183
HMEDKPITKEQKQAMFALLREHFSGDEGNAVYTAVLEREGLAPGDKIMSSVYDRLIDGINEAIRQKLEAGA | -0.133
HMEDNLMIVVQVNGKKRSEIKVSIDASEDQIKQTALAEPNVQKFVEGHTIRKMILVPSKLLNIVV | ≥ 0.43
HMEDPKLAQLTEQERKILDLIADGLTNRQIAEKMFLAEKTVKNYVSTILAKMGMSNRSEAAAYVARLEAG | -0.292
HMEDPPISQEQRQALFKMAHDHLGKDEGNKAILTLIQSHGLNSTTGMKVSTYNTIMEELVSTIQSLAA | 0.0682
HMEDPVAQEARAAFEVGRLLAAATGPVTLAAIRRAIDLPEERLEEILRRLEESGAVRRARDGWLPG | -0.269
HMEDVDLFTKAMAALPNRYRDILLLRYSHGYTVEEISDILSMKPENVKKTIQRARKKLGEILEAEG | -0.202
HMEEDPVIAAQRFLNIFRQLHIFTAAKRKEFDELLLKQPASVKGMFASLPGGSVLQEYVNNLEQNAG | -0.0952
HMEEFIEHTVEKGEFLSAIIVAYNQHLKSKGFKSITTRDILNANPKLKPELIQVGQKIKIPRRKK | -0.0958

Reference: the domain aggregation screens of Martell et al. (2025)
